pKd: −log10 of the molar value. Several values for one entry are separate records, joined by “and”; a condition that tells them apart may be missing. Identical values can stand only once.
How the values were obtained:
[1] = target: TaXPD 100C-238C C (crosslinked) (Thermoplasma acidophilum) (UniProt Q9HM14); experiment: fluorescence anisotropy; conditions: Anisotropy: 20 mM MES pH 6.4, 1 mM DTT, 1 mM MgCl2, 100 nM DNA, +/- 1 mM AMPPNP, temperature not stated; trapping: 20 mM Tris-HCl pH 8.3-8.5, 50 mM NaCl, 4 C …
[2] = target: TaXPD 107C-312C C (crosslinked) (Thermoplasma acidophilum) (UniProt Q9HM14); experiment: fluorescence anisotropy; conditions: Anisotropy: 20 mM MES pH 6.4, 1 mM DTT, 1 mM MgCl2, 100 nM DNA, +/- 1 mM AMPPNP, temperature not stated; trapping: 20 mM Tris-HCl pH 8.3-8.5, 50 mM NaCl, 4 C …

TACGACAGAGAAGAGACGAGCATTTTTGCTCGGAAGGA [3'-fluorescein hairpin DNA with 5' overhang]
pKd [1]: 6.22 and 6.30
pKd [2]: 6.52 and 6.40
